# According to publication PMC5896956, “Small molecule induced oligomerization, clustering and clathrin-independent endocytosis of the dopamine transporter” (eLife, 2018):
# B1: YFP-DAT additionally tagged with an extracellular hemagglutinin (HA) epitope (YFP-HA-DAT) (natural protein, human, UniProt Q01959 1-620, looked up)
# chain: MSKSKCSVGLMSSVVAPAKEPNAVGPKEVELILVKEQNGVQLTSSTLTNPRQSPVEAQDRETWGKKIDFLLSVIGFAVDLANVWRFPYLCYKNGGGAFLVPYLLFMVIAGMPLFYMELALGQFNREGAAGVWKICPILKGVGFTVILISLYVGFFYNVIIAWALHYLFSSFTTELPWIHCNNSWNSPNCSDAHPGDSSGDSSGLNDTFGTTPAAEYFERGVLHLHQSHGIDDLGPPRWQLTACLVLVIVLLYFSLWKGVKTSGKVVWITATMPYVVLTALLLRGVTLPGAIDGIRAYLSVDFYRLCEASVWIDAATQVCFSLGVGFGVLIAFSSYNKFTNNCYRDAIVTTSINSLTSFSSGFVVFSFLGYMAQKHSVPIGDVAKDGPGLIFIIYPEAIATLPLSSAWAVVFFIMLLTLGIDSAMGGMESVITGLIDEFQLLHRHRELFTLFIVLATFLLSLFCVTNGGIYVFTLLDHFAAGTSILFGVLIEAIGVAWFYGVGQFSDDIQQMTGQRPSLYWRLCWKLVSPCFLLFVVVVSIVTFRPPHYGAYIFPDWANALGWVIATSSMAMVPIYAAYKFCSLPGSFREKLAYAIAPEKDRELVDRGEVRQFTLRHWLKV
# notes: Dopamine transporter (DAT), human; Monomer runs at 95 kDa, SDS-resistant oligomer at about 290 kDa; also called dopamine transporter; human DAT; source: PAE cells, stably expressed, in lysate
# Target: the molecule itself
# Test: SDS-resistant oligomers on SDS-PAGE and western blot; PAE cells stably expressing the tagged transporter, vehicle (DMSO) or 20 µM AIM-100 for 2 hr at 37°C (also after cocaine, dopamine, amphetamine, modafinil, KRCA-0008, CHC siRNA, at 4°C or 20°C); lysis in TGH buffer, Laemmli buffer (2% SDS, 5% β-mercaptoethanol) 5 min at 95°C, 7.5% SDS-PAGE, blot with GFP antibody; oligomers (O) against monomers (M)
protein,measurement,value
B1,fold increase of the fraction of the ~290 kDa oligomer species with AIM-100 against vehicle,> 5 fold
same,stoichiometry N,~3
